This data set deals with the molecule itself. In words: crystal structure.

Numbering of substitutions follows the chain as printed. In names and notes the source's numbering stands.

We go through four proteins from publication PMC4270374 (Biochemistry, 2014).

The stoichiometry N is the number of molecules, sites or subunits per partner or assembly.

B1: AfUGMY104A (UDP-galactopyranose mutase from Aspergillus fumigatus, Y104A on the K344A/K345A background) (enzyme)
chain: MTHPDISVDVLVIGAGPTGLGAAKRLNQIDGPSWMIVDSNETPGGLASTDVTPEGFLYDVGGHVIFSHYKYFDDCLDEALPKEDDWYTHQRISYVRCQGQWVPAPFQNNISMLPKEEQVKCIDGMIDAALEARVANTKPKTFDEWIVRMMGTGIADLFMRPYNFKVWAVPTTKMQCAWLGERVAAPNLKAVTTNVILGKTAGNWGPNATFRFPARGGTGGIWIAVANTLPKEKTRFGEKGKVTKVNANNKTVTLQDGTTIGYKKLVSTMAVDFLAEAMNDQELVGLTKQLFYSSTHVIGVGVRGSRPERIGDKCWLYFPEDNCPFYRATIFSNYSPYNQPEASAALPTMQLADGSRPQSTEAKEGPYWSIMLEVSESSMKPVNQETILADCIQGLVNTEMLKPTDEIVSTYHRRFDHGYPTPTLEREGALTQILPKLQDKDIWSRGRFGSWRYEVGNQDHSFMLGVEAVDNIVNGAVELTLNYPDFVNGRQNTERRLVDGAQVFAKSKAQ
Take B1: the “stoichiometry N” value stood at 4.

B2: AfUGMN207A (UDP-galactopyranose mutase from Aspergillus fumigatus, N207A on the K344A/K345A background) (enzyme)
chain: B1 chain with A104Y, N207A
For B2, the “stoichiometry N” value came out at 4.

B3: AfUGMY317A (UDP-galactopyranose mutase from Aspergillus fumigatus, Y317A on the K344A/K345A background) (enzyme)
chain: B1 chain with A104Y, Y317A
B3: the “stoichiometry N” value is 4.

B4: AfUGMQ107A (UDP-galactopyranose mutase from Aspergillus fumigatus, Q107A on the K344A/K345A background) (enzyme)
chain: B1 chain with A104Y, Q107A
Consider B4, for which the “stoichiometry N” value was determined as 4.
